{"source": "the DeepSol protein solubility set", "data": [{"test": "soluble on expression in E. coli; label from the status in PepcDB or PDB records", "values": [{"sequence": "MGSDKIHHHHHHMTTFYSLKVARVEPETRDAVTITFAIPQALQAEYCFRPGQHLTLKARLGGEELRRCYSICRSRTPGEISVAVKAIDGGRFSRYAQQDIQQGMELEVMVPQGHFGYQPQAERQGEYLAIAAGSGITPMMAIISATLATEPQSRFTLIYGNRSSHSMMFRQALADLKDRYPQRLQVIHLFSQESMDSDLLQGRIDGDKLRQLADHLLDFSRFDEAFICGPAAMMDEAEATLRELGVAEKSIHLERFNTPGGNVKRVAGVQAEGRTVTIRQDGRDRLIALSAEDDSILDAALRQGADLPFACKGGVCATCKCKVLRGEVAMAANYSLEADELAAGYVLSCQSLPTSGDVVVDFDARGMA", "soluble on expression in E. coli": "not soluble"}, {"sequence": "GMADAPIDIFQSILSRKSIRAFTDQPVTQETIREILKLAARAPSGTNLQPWQVIVLTGKILQKVGQELSQLVLSGIKGEREYHYYPRQWREPYLSRRRKVGLDLYKSLGIQKGDQEKMLHQKAKNFLFYGAPVGLLFTIDHDMEMGSWLDLGMFMQTIMLAARGFGLDTCAQAAFADYHKQIRSLLSVPSDRHIICGMALGYRDMNAPENNFETEREPIDNFVHFIKSYP", "soluble on expression in E. coli": "soluble"}, {"sequence": "MEKNKSSSPDFSVRDFFKRFPDDEACLEHIFNVRFGARHVCRACGVESTFHRMSDRRAFACAACGDHVYPTAGTIFQDTRTPLQVWFYAIYLFVTTRHGVSGKELQRQLGVTYKTAWRIGHKIREQMDKHDLKAMLQGHVEIDEAYIGGKRPGKRGRGAAGKTIVMGFKQRGGRLVTEIVPDVKLKTLRAETLKTVDAGATVSTDELYSYSLLKGEGYTHVAVKHGAKQWTIYDAETDTMHHTNHVESFWRHFKHSIRGTHVSISQRHMRKYLDEFTFRANHRGEVNLMFDRLVAAFLEHHHHHH", "soluble on expression in E. coli": "soluble"}, {"sequence": "MGVQTHVLELTSSVSAEKIFQGFVIDVDTVLPKAAPGAYKSVEIKGDGGPGTLKIITLPDGGPITTMTLRIDGVNKEALTFDYSVIDGDILLGFIESIENHVVLVPTADGGSICKTTAIFHTKGDAVVPEENIKYANEQNTALFKALEAYLIAN", "soluble on expression in E. coli": "soluble"}, {"sequence": "MTERFFAPCPRGLETVLAAELERLDATSIQASPGGVGFHGNWQTCYRANLESRIASRILWQIAKDQYRSEADIYDLTHSLPWQDWFEPRLSIKVNLAAIKCPLRSLDFVTLRIKDAVCDKFRAIHGKRPDIDTVAPDMRIHGFLNAQEFTLYLDTSGEALFKRGLRQTQGEAPLRENLAAGILALTGWQPGTPLLDPMCGSGTLLLEAAQIACRIAPGSGRQFAFEQLKLFDARSWKKLKQTATERQHERTFQSIYGSDLYGSALAHTRNNLAAAGLAECVTLKQANVLEISAPAETGILVSNPPYGVRIGDHQMLAEFYPRLGDVLKQRFSGWRAFLLTADPLLAKSIRLTPSRRTPLFNGALECRLLEYRLVAGSMRREKQPSSESSTNQPIT", "soluble on expression in E. coli": "not soluble"}, {"sequence": "MSNRNGGGGGGDYQDVIESLRRTQLIFEEDDNNSSDSAPQANHLSRHQTSNSLVEDMVNHSNGNPPPVPPGITQQQCQIGLTPRMSASPPSAVSTISGTAVLGKTMARVQSNPPGSIPHNTTTTAQGIQSVAPHIPIGGGGATDDSSAEILSVFECPVCLEYMLPPYMQCSSGHLVCSNCRPKLQCCPTCRGPTPSVRNLGLEKIANTVRFPCKFSTSGCPLNFHHADKTEHEELCEFRPYCCPCPGASCKWQGGLSDVMEHLKKIHKSITTLQGEDIVFLATDINLPGAVDWVMMQSCFDYNFMLVLEKQEKYDPAQPTQMFYAVVQLIGSKKEADNFVYRLELSASRRRMSWEATPRSIHEGVVVAIQQSDCLAFDSNAAQLFAENGNLGINVTISRIDTPQRRHPNELENSDLEYD", "soluble on expression in E. coli": "not soluble"}, {"sequence": "MHPGIDSMSSNINCENNPFSFYGNPHKSVIIHGKEGTELLKEKGEDCKTFENSQQYFLWCCVQQQMYHYQLLSTAFASYGFEPPRIPGAFPHHIPPIFNGSMKCLRDREVFNQSGFLYVNVSPDTYQETRQEAPVEQRNQWSEKSKTTSKKSICKVLFECTNSSLLENAENRSIFSKQGSGSHVGENSKNPSEDSGQSGRLSQNATAEHNVLEKHLQEEYQMAKNTVNESFDSLKECSAASVIKGSYLLSQVVHIPEDAIEPEIPPDLQGPGGHVFLRMLSRSWRQYKRALEHNE", "soluble on expression in E. coli": "not soluble"}, {"sequence": "SSNVIIMGHKFPDMDSIGAAIGILKVAQANNKDGFIVIDPNQIGSSVQRLIGEIKKYEELWSRFITPEEAMEISNDDTLLVIVDTHKPSLVMEERLVNKIEHIVVIDHHRRGEEFIRDPLLVYMEPYASSTAELVTELLEYQPKRLKINMIEATALLAGIIVDTKSFSLRTGSRTFDAASYLRAKGADTVLVQKFLKETV", "soluble on expression in E. coli": "not soluble"}, {"sequence": "GPGSMYPGAVGCPWRRLDACVETSYSWALNVMSTNTSKAAVRQSKLTWDEGELTSARLKNDRNGKKARISASGSFRIRAMILACAPSSLAATPADNLPETASTLSFCEMLFNAGVAPLKTPAISSFEACTDVRVCVEAFKTGMPLFSSADEGASGNFFRYPPAAITTACSAETKLIDQSCFTRTTPFRHMGNAA", "soluble on expression in E. coli": "not soluble"}, {"sequence": "MSRPTIIINDLDAERIDILLEQPAYAGLPIADALNAELDRAQMCSPEEMPHDVVTMNSRVKFRNLSDGEVRVRTLVYPAKMTDSNTQLSVMAPVGAALLGLRVGDSIHWELPGGVATHLEVLELEYQPEAAGDYLL", "soluble on expression in E. coli": "soluble"}, {"sequence": "MAGDPMNIQDAQPSTLREMIKQGKLTGHTSGMAKGYVQANVVILPSKCAYDFLLFCFRNPKTCPLLDVSEKGNKSFTKYGVTADISTEVAAYRIYQYGELIETRANVDDLYTDDMVSFLIGCSFTFEHALLEAGIPIRHLEENHNVPMYVTNIPANPSGQFKGNITVSMRPMTMTQAIKATEITTRFKNVHGTPIHIGNPTEIGITDLALPDFGEPVTINENEVPVFWGCGVTPQSVALDAKPDLMITHAPGHMFITDIPDSQLSDLEHHHHHH", "soluble on expression in E. coli": "soluble"}, {"sequence": "SAPAPPSGWSQVFLDDFDGAAGSSVNTANWQFDTGTSYPGGAGNWGTGEVESMTSSTSNVSLDGNGDLLITPRRDASGNWTSGRIETTRTDFQPPAGGKLRVEARLQMPNVTGDAAAGYWPAFWMLGAPFRGNYQNWPGVGELDIMENVQGLNKTWATMHCGTSPGGPCNETSGIGNSTACPNTTCQSGFHTYTMEWDRSVSPEAIRFSVDGVTYQTVTANQMDAATWTNATNHGFFVILNVAMGGGFPGAFGGGPTGATEPGHPMVVDYVQVTSLSPGL", "soluble on expression in E. coli": "soluble"}, {"sequence": "MGSDKIHHHHHHMVRLAVVGLGKMGLSHYAMINAHPDVKVEAVCDSTGYVLDVLNKYTGVRTYTDFDVMLRDIELDAVIIATPSRSHGQMVEVALNENLHVFCEKPFCLDITEGERLARIAAERGLVNQVGYHNRFVGAFQEVKRLLDAGAIGAVTHVLAEAYGPVVLKPKGSTWRTQRTEGGGCLYDYAAHPINLVNWYLGAPQSVGGSVLNKIFSKDTEDEVFSTLYYEEGKSVQISVNWSDESYRKMTTKVTIWGTQGRIYADRQECQVYIRDGVNIPAGYQRGWNVRYTTDLTEAVWFYLRGEEYSAQLDYFVRCIEEKEGGGNINSFEEAVITDRVMSMMVADAEKRPPVTSGIAPRQAPGKKFGLLFGGRKAVS", "soluble on expression in E. coli": "not soluble"}, {"sequence": "MPDIFQQEARGWLRCGAPPFAGAVAGLTTKHGGESKGPFASLNMGLHVGDDRTDVVNNRRRLAEWLAFPLERWVCCEQVHGADIQKVTKSDRGNGAQDFATAVPGVDGLYTDEAGVLLALCFADCVPIYFVAPSAGLVGLAHAGWRGTAGGIAGHMVWLWQTREHIAPSDIYVAIGPAIGPCCYTVDDRVVDSLRPTLPPESPLPWRETSPGQYALDLKEANRLQLLAAGVPNSHIYVSERCTSCEEALFFSHRRDRGTTGRMLAFIGRREEWT", "soluble on expression in E. coli": "soluble"}, {"sequence": "MGNWAEITDEISKIYQDNQYKIRQINDVDAVSDKRREALQALFEHTGRNVIVYYSAWLENGRRFSGQSTDFSVNDTDKNSFMTALHKLDQSKGLDLILHTPGGDVAATESLVDYIHALFGQDFRVIVPQLAMSAGTMIALSSKEIVMGKHSSLGPIDPQFNGLPAHGLLEEFEQAKKEVSENPQTAHIWQVILNKYNPTMLGEAKKAIQWSNSMVKQWLEKGMFLDEPDKEEKATRAIKELADHSVTLAHNRHISVSKALELGLNIKELESDPKLQDLVLTLHHLSVIAAQRGPLIKFVVNHDNRGTFLQGHEN", "soluble on expression in E. coli": "soluble"}, {"sequence": "MTTIVPTSEENPFLAVVRFTSQLAWADAGPEAAEPEITRLCREAEESMVAEKWLELSSLMVTSAELVSSKISEKDLECTYTIICSIVKNAKSPEQVLEMVKAIASKVAQQPSDKASLRLKILFNLYNLVDHPYARFQVYMKALTLAVDGKVTEYIVSSFKKIDNFLKEWNIDIKDQRELFLAIANVLKENKSLVNESLKFLTKYLATFSNEDAQVLDEAKEEAVRAVIEFVKASSIFQCDLLDLPAVAQLEKDAKYAPVYQLLKIFLTQRLNAYTEFQNANSGFLQSYGLSNEDCVTKMRLLSLVDLASDESGKIPYTSIKDTLQVNEQDVELWIVKAITAKLIESALPNVNLGQSNGNLSEQSLRLGSIITTIESNKVTEEGSQASSSSAAAIQGLSVR", "soluble on expression in E. coli": "soluble"}, {"sequence": "AIACGDCVEKEYPNRGTTCLENGSFLLNFAGCAVCSKRDFMLITNRSLKEEDGEEIVTYDRIYHAVSVVWQS", "soluble on expression in E. coli": "soluble"}, {"sequence": "MAHHHHHHMCADGVDKVPDETDNRETNEKKRPKRKRRYIDIDKMNFDFEEEDFASSSNEELVRRNYVNEEEYTGGYANGYTNEHMNGLPYQKDINMNSEVIRGLLEPPPIPFNDTFQKYNREISDVYVKQKKKSSGTLNIFLESQLLCIDEGAFEKENNFINNHFDNFIMRKLNVVNTTNMQDTTNQNKDLQELLKYLMSWYFSGFYSGRVSMLKELHGE", "soluble on expression in E. coli": "soluble"}, {"sequence": "MGSDKIHHHHHHSDDDDEKMVNPVPQTTFTGENGLQLTYNGAPMPGKKVTFTPDATNAQKATLRLEGEFDLNGILGKAKSAAAREDVSMPTAPGVLPGSPVVTLPVDLTINGDQCSFAGTSETDYCTFSYKGEVSAGAMELALSEVKLKNAKLAGMTWKLKPYNQEVEEQDPVRLVWESEKGIPLFGSFEMPVESVLKIALRMPLIAVGAENKVSATDMLGTVLKDVTFMEDGNIVATYKDAANGGTEWTKSPVNLAQYVVENDNQIKVFLNPAAIIAAVNNAGRAIDVQTVIQQAIQILYPMLVNGVPVAFEQTEDALSVYLNTELLLPLLKTLVVPLLSDEEVVAMLVELMKKDPDFGEMAGLAEPMLKAFPEIIESTTKVEIGLNFVK", "soluble on expression in E. coli": "not soluble"}, {"sequence": "MSLWMYIHKIMKLSYKRVILTRELEDIKKDKPLFEREGFKVLELPLIQTKVLEFNLPDEEFDYIVFQSKKAVKIFLGKVNLKGNKKIVAVGKKTAEELEKLGYKADFIPENESAKGLIELFKRLPKGKVLIPRSKIGRTELIKFLKETSFEVFALDVYTTEYVFYTREELLEKLNKGDFIIFYSPSAVKAFFANLQMHKIPKDSLSLKFVAIGKTTKEELQKHSVKNVITSERPSTEDIVKKLKELARDLQKEGHHHHHH", "soluble on expression in E. coli": "soluble"}, {"sequence": "MGSDKIHHHHHHMNEIAEVLPESMKNALSEIPEQQWLEIEEVRIRINRPVELIRRGQPVYLSYAGTAEDAHLILSRLSNYSMYTLEEELKKGYVTIRGGHRVGLAGRVITENGGVKGLRDIASFNIRIARQKLGIAEPLLPYLYQNSWLNTLIIGPPQTGKTTLLRDLARLSSTGKKNMLPVKTGIVDERSEIAGCLRGIPQHQFGQRIDVLDACPKAEGLMMMIRSMSPEVMIVDEIGRMEDTDALLEALHAGVSVIVSAHGWSISDLMKRPSLKRLWEERAFDRYLELSRAKGPGTVSQIYDKDGNVLSRTTGVKTC", "soluble on expression in E. coli": "not soluble"}, {"sequence": "MPNSSILLIFLLTIVILIAPEENHKTYCEVLTSNNSNCTAYCKEKPECSWGRCEGYFKTNCVCYSDKYQFCE", "soluble on expression in E. coli": "not soluble"}, {"sequence": "MGSDKIHHHHHHMKKLFMSEYLNYVFQKKVWIVENIYMIKIMQLYYSSYNKKFISHTFFTDAIKNSSFPIFLNYVNNLNDKILYHSQVHGVKHILNVTFFSFLIACNENMSANDMGILLETALYHDIGRDDDMEDSDHGHRGAKKILMHISDNKMDMIIPAVIHAHSLLDEEAYQIFRQYNIEKSQYARYSKILSIIKDADALDRFRLRPNSLNPEYFRIDFSKILISLACVLSKVEWHE", "soluble on expression in E. coli": "not soluble"}]}]}
